From patent US10543284B2, “Anti-c-Met antibody and anti-c-Met antibody-cytotoxic drug conjugate and pharmaceutical use thereof” (Suzhou Suncadia Biopharmaceuticals Co., Ltd., priority 2015, dated 2020)

Tests used:
[1] = LC-MS analysis of deamination (biophysical stability); type: physicochemical; conditions: Proportion of deamination molecules; 0.66-1.0% is within background
Description: To evaluate the biophysical stability of the antibodies of the invention, such as the presence of glycosylation and deamination and stability, LC-MS analysis was used.
The molecular weight of the heavy and light chains was detected by LC-MS to analyze glycosylation. Deamination was analyzed by LC-MS at 4° C. for a long time (at least 3 months), or at 40° C. for 21 days under an accelerated condition. Samples treated with different conditions were diluted to 2 mg/ml with pH7.2 Tris-HCl, and added into 10 mM TCEP and 6M urea (AMRESCO, Cat #0378)3, then the samples were incubated for 20 minutes at […]. IAA(Sigma-Aldrich, Cat # I1149) with a final concentration of 20 mM was added and was incubated for 15 minutes in darkness to protect the sulfhydryl group. The pH was adjusted using pH7.2 Tris-HCl, and protease (Sigma-Aldrich, Cat # T6567) was added at a proportion by weight of 10:1 (protein: enzyme). The samples were incubated at 37° C. for 25 minutes, and then formic acid with a final concentration of 0.1% (Fluca, Cat #94318) was added to terminate the reactions. Samples were centrifuged and analyzed by LC-MS.
BiopharmaLynx was used to analyze the presence of deamination. […] The peak area was obtained by integration, and the percentages of deamination and oxidation were calculated.

MKN45 cells = test: Inhibition of proliferation of MKN45 gastric cancer cells (CellTiter-Glo, 5 days); type: cell-based, human
Description: The clones above were selected and further cultured to obtain monoclones. After verification of binding activity by ELISA, monoclones were selected for cultivation, and the resulting supernatant was subjected to a cell viability assay. According to the experiment principle, anti-human c-Met antibodies of the invention are able to inhibit phosphorylation of c-Met expressed on the surface of human gastric cancer cell line MKN45, thereby inhibiting the proliferation of MNK45 cells.
Human gastric cancer cells (MKN45, JCRB, JCRB0254, P11) were added to a 96-well cell culture plate (costar, #3799) at 1×10^5 cells/mL and 50 μl/well. The medium was RPMI1640 medium: (GIBCO, cat #11835)+10% FBS (GIBCO-10099141). Anti-human c-Met antibodies to be tested were added at 50 μl/well, and the plate was cultured for 5 days in incubator at 37′C (Manufacture: SANYO; Equipment No. TINC035). CellTiter-Glo® Luminescent Cell Viability Assay (Promega, G7573) was used, and the proliferation of cells was detected according to the instructions. The plate was read by a PerkinElmer plate reader, TREA001-RDA-IBA100. The following formula was used to calculate the percentage proliferation of cells: % proliferation of cells=(1−cell reads in experimental group/cell reads in untreated group)×100%.

[2] = system: MKN45 cells expressing c-Met; test: Endocytosis of anti c-Met antibody in MKN45 cells (FACS); type: cell-based, human; conditions: 10 μg/ml
Description: Antibodies of the invention could bind to human c-Met, have very good in vitro activity, and inhibit tumor activity in vivo. […] In order to detect whether the antibody could be taken up into the cell along with human c-Met once bound to human c-Met, the human gastric cancer cell line MKN45 (JCRB, Cat No.: JCRB0254) expressing c-Met was used for evaluation. […] The plate was incubated at 4° C. for 1 hour. FACS buffer (phosphate buffer solution including 2.5% fetal bovine serum; Hyclone, Cat: SH30256.01B) was added, and the plate was centrifuged at 4° C., 1300 rpm for 4 minutes. The supernatant was discarded, and this procedure was repeated three times. 100 μl secondary antibody solution (Fluorescence labeled goat anti mouse secondary antibodies at 1:200 dilution, Biolegend, Cat No. 405307; Fluorescence labeled anti-human secondary antibody at 1:30 dilution, Biolegend, Cat No. 409304) was added into each well, and the plate was incubated at 4° C. for 1 hour. FACS buffer was added and the plate was centrifuged at 4° C., 1300 rpm for 4 minutes. The supernatant was discarded, and this procedure was repeated three times. […] FACS buffer was added and the plate was centrifuged at 4° C., 1300 rpm for 4 minutes. The supernatant was discarded, and this procedure was repeated three times. 200 μl Stripping buffer (0.05 M glycine, pH 3.0; 0.1 M NaCl, mixed in accordance with 1:1 (v/v)) was added to each well. The cells were resuspended and were incubated for 7 minutes at room temperature. The cells were centrifuged at room temperature at 1300 rpm for 4 minutes, and the supernatant was discarded. 200 μl neutralizing wash buffer (0.15M trihydroxymethyl aminomethane, pH 7.4) was added to each well, the cells were resuspended and centrifuged at room temperature at 1300 rpm for 4 minutes, and the supernatant was discarded. 200 μl FACS buffer was added, and the cells were resuspended. Samples were prepared and detected by flow cytometry (BD FACS Calibur). Endocytosis of c-Met antibody %=(intensity of fluorescence at various time points−average intensity of fluorescence at time 0)/average intensity of fluorescence at time 0.

Caki-1 cells = test: Agonist test: stimulation of Caki-1 cell proliferation; type: cell-based, human; conditions: highest concentration 20 μg/ml, 5 days
Description: Caki-1 cells express the hepatocyte growth factor receptor c-Met, and HGF can bind c-Met to stimulate Caki-1 cell proliferation. Therefore, agonist activity of anti c-Met antibodies could be evaluated by the proliferation of Caki-1 cells stimulated by the humanized anti c-Met antibodies of the invention compared with the proliferation of Caki-1 cells stimulated by HGF.
Caki-1 cells (Shanghai Branch of Chinese Academy of Science, TCHu135, P12) were added to a 96-well culture plate (costar, #3799) at 1000/well. The medium was McCoy's 5A (invitrogen, #16600)+10% FBS (GIBCO-10099141), and the condition was at 37° C. for 24 hours. Afterwards, cells were starved for 24 hours (The medium for cell starvation is McCoy's 5A and 0.5% FBS).

B1: Ab-9: humanized anti c-Met antibody: heavy chain sequence of SEQ ID NO: 23 and light chain sequence of SEQ ID NO: 26 (antibody)
heavy: QVTLKESGPVLVKPTETLTLTCTVSGFSLPNYGVHWVRQPPGKALEWLAVIWSGGSTNYAAAFVSRLRISKDTSKSQVVFTMNNMDPVDTATYYCARNHDNPYNYAMDYWGQGTTVTVSSASTKGPSVFPLAPCSRSTSESTAALGCLVKDYFPEPVTVSWNSGALTSGVHTFPAVLQSSGLYSLSSVVTVPSSNFGTQTYTCNVDHKPSNTKVDKTVERKCCVECPPCPAPPVAGPSVFLFPPKPKDTLMISRTPEVTCVVVDVSHEDPEVQFNWYVDGVEVHNAKTKPREEQFNSTFRVVSVLTVVHQDWLNGKEYKCKVSNKGLPAPIEKTISKTKGQPREPQVYTLPPSREEMTKNQVSLTCLVKGFYPSDIAVEWESNGQPENNYKTTPPMLDSDGSFFLYSKLTVDKSRWQQGNVFSCSVMHEALHNHYTQKSLSLSPGK
light: DIVLTQSPASLAVSPGQRATITCRANKSVSTSTYNYLHWYQQKPGQPPKLLIYLASNLASGVPARFSGSGSGTDFTLTINPVEANDTANYYCQHSRDLPPTFGQGTKLEIKRTVAAPSVFIFPPSDEQLKSGTASVVCLLNNFYPREAKVQWKVDNALQSGNSQESVTEQDSKDSTYSLSSTLTLSKADYEKHKVYACEVTHQGLSSPVTKSFNRGEC
modifications: Ab-9 heavy chain; Ab-9 light chain
Analysis of deamination 4° C., 3.5 months [1]: 0.66% | Activity of inhibition of MKN45 cell proliferation Maximum inhibition rate (%) (MKN45 cells): 33% | endocytosis % 0 h ([2]; 0 h): 0% | endocytosis % 0.5 h ([2]; 0.5 h): 26% | endocytosis % 1 h ([2]; 1 h): 32% | endocytosis % 2 h ([2]; 2 h): 32% | endocytosis % 4 h ([2]; 4 h): 31% | Stimulation of proliferation of Caki-1 (Caki-1 cells): none
